Measured values from US20240317865A1, “ANTIBODIES AGAINST INTEGRIN ALPHA 11 BETA 1” (MOMENTA PHARMACEUTICALS, INC., priority 2020, published 2024).
Positions count from the first letter of the chain named. Entries after “also recorded” stand apart in the source; their conditions may differ.

T1: α11β1 I Domain (Homo sapiens, UniProt Q9UKX5)
T1 sequence (Q9UKX5 164-345 limits assumed): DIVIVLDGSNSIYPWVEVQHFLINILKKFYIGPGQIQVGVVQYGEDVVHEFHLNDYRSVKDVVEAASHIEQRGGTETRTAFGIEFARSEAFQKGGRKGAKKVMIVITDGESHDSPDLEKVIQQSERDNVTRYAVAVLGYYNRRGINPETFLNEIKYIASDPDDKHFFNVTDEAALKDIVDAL

T2: adhesion of CHO-K1 cells expressing human α11 to rat tail type I collagen (Homo sapiens, UniProt Q9UKX5)
T2 construct: expressed in transfected cells; host or cells: CHO-K1
T2 sequence (Q9UKX5 23-1188): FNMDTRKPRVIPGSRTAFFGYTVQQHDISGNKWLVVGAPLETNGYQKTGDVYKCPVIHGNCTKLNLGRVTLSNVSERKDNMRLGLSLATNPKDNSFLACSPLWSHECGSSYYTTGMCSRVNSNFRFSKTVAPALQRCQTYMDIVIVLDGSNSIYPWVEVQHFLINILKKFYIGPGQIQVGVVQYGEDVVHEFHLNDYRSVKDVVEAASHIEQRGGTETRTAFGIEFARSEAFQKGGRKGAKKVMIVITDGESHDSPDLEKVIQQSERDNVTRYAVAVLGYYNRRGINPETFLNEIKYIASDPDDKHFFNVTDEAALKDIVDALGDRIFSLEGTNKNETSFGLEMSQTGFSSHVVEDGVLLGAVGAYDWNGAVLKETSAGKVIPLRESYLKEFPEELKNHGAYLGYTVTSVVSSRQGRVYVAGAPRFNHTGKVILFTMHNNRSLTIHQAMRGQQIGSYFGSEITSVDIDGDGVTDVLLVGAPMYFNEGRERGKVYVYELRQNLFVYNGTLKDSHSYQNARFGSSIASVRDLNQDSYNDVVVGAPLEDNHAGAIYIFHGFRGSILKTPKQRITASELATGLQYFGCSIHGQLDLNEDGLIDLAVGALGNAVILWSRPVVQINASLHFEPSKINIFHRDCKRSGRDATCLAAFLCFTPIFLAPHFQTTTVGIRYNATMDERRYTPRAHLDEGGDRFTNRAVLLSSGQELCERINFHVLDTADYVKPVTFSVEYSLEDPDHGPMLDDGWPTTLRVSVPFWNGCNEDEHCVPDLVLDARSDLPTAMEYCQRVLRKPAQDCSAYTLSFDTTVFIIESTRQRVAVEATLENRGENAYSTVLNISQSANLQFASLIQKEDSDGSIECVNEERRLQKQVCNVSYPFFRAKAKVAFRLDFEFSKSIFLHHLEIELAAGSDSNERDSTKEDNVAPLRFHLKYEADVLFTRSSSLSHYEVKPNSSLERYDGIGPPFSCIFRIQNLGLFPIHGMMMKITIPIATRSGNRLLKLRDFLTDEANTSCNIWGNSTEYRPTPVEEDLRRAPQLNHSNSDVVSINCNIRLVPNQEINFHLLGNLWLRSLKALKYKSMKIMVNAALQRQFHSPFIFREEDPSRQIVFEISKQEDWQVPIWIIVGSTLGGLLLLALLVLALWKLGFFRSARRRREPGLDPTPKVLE

B1: 9-E16: mouse anti-α11β1 mAb; VH SEQ ID NO: 111, VL SEQ ID NO: 112 (antibody, V domains shown)
VH: EVQLQQSGPELVKPGASVKISCKASGYTFTDYYMHWVKQKPGQGLEWIGEIYPGSGNPYYNEKFKGKATLTADKSSSSAYMQLSSLTSEDSAVYFCARTSYGRVGTGFAYWGQGTLVTVSA
VL: NFVMTQTPLSLPVSLGDQASISCRSSQSLLHSNGNTYLHWYLQKPGQSPKLLIYKVSNRFSGVPDRFSGSGSGTDFTLKINRVETEDLGIYFCSQSSHVPTFGAGTKLELK
B2: 1994_01_D12: fully human anti-α11β1 mAb from phage display; HCDR3 SEQ ID NO: 267, LCDR3 SEQ ID NO: 334 (antibody, V domains shown)
VH: QVQLVQSGAEVKKPGSSVKVSCKASGYTFTSYGISWVRQAPGQGLEWMGWISAYNGNTNYAQKLQGRVTMTTNTSTSTAYMELRSLRSDDTAVYYCARVTGITGTTIDPWGQGTLVTVSS
VL: DIQMTQSPSSLSASVGDRVTITCRASQSISSYLNWYRQKPGKAPKLLIYAASSLQSGVPSRFSGSGSGTDFTLTISSLQPEDAATYYCQQYDSQSGTFGQGTKLEIK
B3: 8H8E9: rat anti-α11β1 mAb; VH SEQ ID NO: 149, VL SEQ ID NO: 150 (antibody, V domains shown)
VH: MAVLVLLLCLVTFPSCALSQVQLKESGPGLVQPSQTLSLTCTVSGFSLTSNSVSWVRQAPGKGLEWMGAIWSGGSTDYNSALKSRLSISRDTSKSQVFLKMNSLQTEDTAIYFCTRSHWEPFDYWGQGVMVTVSS
VL: MESQTQALISLLLWVYGTCGDIVMTQSPFSLAVSEGEMVTINCKSSQGLLSSGNQKNYLAWYQQRPGQSPKLLIYYASTRQSGVPDRFIGGGSGTDFTLTISDVQAEDLADYYCLQHYSYPPTFGSGTKLEIK
B4: 6E5C11: rat anti-α11β1 mAb; VH SEQ ID NO: 151, VL SEQ ID NO: 152 (antibody, V domains shown)
VH: B3 VH with K24R, S54T, A59P, G73D, A81T, N102S
VL: B3 VL with F29L, M38T, I41M, G48S, L50F, R65K, G91S, A106T, S119N
B5: 9-G05: mouse anti-α11β1 mAb; VH SEQ ID NO: 103, VL SEQ ID NO: 104 (antibody, V domains shown)
VH: EVQLQQSGPELVKPGASVKIPCKASGYTFPDYNMDWVKQSHGKSLEWIGYINPDNGGTIYNQKFKGKATLTVDKSSSTAYMELRSLTSEDTAVYYCARLDSSGYGYYAMDYWGQGTSVTVSS
VL: DIVLTQSPASLAVSLGQRATISCRASESVDNYGISFMHWYQQKPGQPPKLLIYRASNLDSEIPARFSGSGSRTDFTLTIDPVETDDVATYYCQQSYKDPRTFGGGTKLEIK
B6: 24E4G6: rat anti-α11β1 mAb; VH SEQ ID NO: 147, VL SEQ ID NO: 148 (antibody, V domains shown)
VH: MELELSLIFIFSLLKDVQCEVQLVESGGSLVQPGGSLKLSCVASGYTFSNYWMDWVRQSPGKSLEWIGEINTDGRRTNYAPSIKDRFTISRDNAKSTLYLQMSNVKSDDTAIYYCTILRVYPHYFDYWGQGVMVTVSS
VL: MMSPAQFLFLLMLWIQEARGDVVMTQTPPSLSVAIGQSVSISCKSSQSLVYSDGETYLHWFLQSPGRSPKRLIYHVSNLGSGVPDRFSGTGSLTDFTLRISRVEAEDLGVYYCAQTTHFPPTFGAGTKLELK
B7: 8-I14: mouse anti-α11β1 mAb; VH SEQ ID NO: 109, VL SEQ ID NO: 110 (antibody, V domains shown)
VH: EVQLQQSGPELVKPGASVKKSCKASGYTFTDYYMHWVKQKPGQGLEWIGKIYPGSGNTHYNEKFKGKATLTADKSSSTAYMQLSSLTSEDSAVYFCATNYYGYRAMNYWGQGSSVTVSS
VL: DIHLTQSPSSLSASLGERISLTCRASQDIYISLNWFQQKPDGTIKLLIYGTSSLDSGVPKRFSGSRSGSDYSLTISSLESEDFADYYCLQYASSPYTFGGGTKLEIK

How the values were obtained:
[1] = system: CHO-K1 human α11-mediated rat tail type I collagen gel contraction; test: Collagen gel contraction assay; type: cell-based; details: compared to untreated condition
Experimental: 24-well plates were blocked with 2% BSA in PBS overnight at 37° C. The following day, the plates were washed 3 times with PBS before being used in the assay. Human CHO cell lines expressing α11 were harvested and resuspended at 1.25×10^6 in ExpiCHO Expression Medium (Gibco™ Cat #A2910002). The collagen gel solution was prepared by diluting 3 mg/mL stock collagen type I (Gibco™ Collagen I Rat Protein, Tail Cat #A1048301) to 1 mg/mL in the media containing the CHO cells. Sodium hydroxide was added to the solution to neutralize the pH and 400 μL of the collagen solution was added to each well of the 24-well plates. For the wells where the antibodies were included in the collagen gel solution, CHO cells were prepared at 2.5×10^6 and the antibodies were prepared at 2× final concentration in ExpiCHO media. The cells and antibodies were then combined 1:1 before the addition of the stock collagen type 1. The gels were allowed to polymerize for 60 minutes at 37° C. Antibodies were added to the ExpiCHO media, which was then layered on top of the polymerized gel (400 μL/well). The gels were incubated for 6 days at 37° C. before gel contraction was quantified. Images of each well were analyzed using Image J and gel contraction was determined as a percentage of the initial gel area.
Selected exemplary antibodies were tested for the ability to inhibit cell-mediated 3D gel contraction because this ability is directly linked to the functionality of the exemplary antibodies.

α11β1 I Domain [2] = molecular target: T1, α11β1 I Domain; test: ELISA binding to in-house generated α11β1 I domain; set-up: An in-house generated I domain of α11β1 was used; made in house; details: in words
Experimental: 0.25 μg/mL of target antigen (recombinant human or mouse α11β1) was plated in a 96-well plate over night at 4° C. Plates were washed (PBS with 0.1% Tween-20), blocked (PBS with 2% BSA and 0.05% Tween-20) for 1 hour at room temperature and incubated with a range of antibody concentrations for 1 hour at room temperature. Subsequently, plates were washed and incubated with biotinylated anti-rabbit/mouse/human IgG in a 1:1000 dilution buffer and incubated for 1 hour at room temperature. After washing the plates, Streptavidin HRP was added at 1:200 in dilution buffer and incubated for 1 hour at room temperature. Ultra TMB ELISA substrate solution was added and the plates incubated for 5 minutes on a plate shaker. The reaction was stopped by adding stop solution to each well and plates were read at 450 nm.
Data was also collected to determine whether antibodies of interest bind to the I domain of α11β1. An in-house generated I domain of α11β1 was used. […] Mouse antibodies 10-F23, 10-L15, 7-O8, 6-A12, 9-G05 and 9-E16 and rabbit antibodies 7-H12 and 2-D3 were also tested for binding against the in-house generated α11β1 I domain. FIGS. 3A and 3B show graphs illustrating binding data from exemplary mAbs.

[3] = molecular target: T2, adhesion of CHO-K1 cells expressing human α11 to rat tail type I collagen; test: Cell adhesion inhibition (CHO-K1 hu α11 cells to type I collagen, xCelligence); type: cell-based; details: in words
Experimental: 0.6×10^6 cells/mL were incubated with each antibody at a range of concentrations for 20 minutes at 37° C. E-Plate VIEW 96 PET plate coated with 100 ng/ml type I collagen or PBS overnight at room temperature was blocked in 3% BSA for 1 house at room temperature. After washing the plate with PBS, cell and antibody mixture was added to the wells and the plate was places into an xCelligence machine. Cell adhesion was recorded over 6 hours. The time point of maximum cell adhesion was used for comparison relative to control.
A CHO-K1 hu α11 cell line was used to assess the ability of mAbs to block α11β1-mediated binding to type I collagen. […] In the “Untreated” condition, cells were plated on type I collagen but no antibody was added and in the “Uncoated” condition, cells were seeded onto BSA-coated wells containing no type I collagen. Statistics were performed using one-way ANOVA followed by Dunnett's multiple comparisons test. […] Therefore, it is possible that these mAbs bind on an α11β1 domain that keeps the integrin in a low or intermediate affinity state. […] Nine human mAbs were also tested for their ability to inhibit the binding of human CHO-α11 cells to type I collagen.

α11β1 I Domain [4] = molecular target: T1, α11β1 I Domain; test: SPR binding to α11β1 I Domain; details: in words
Experimental: The affinity of antibodies for human α11β1 was measured by surface plasmon resonance assay (SPR). Affinity was measured at pH 7.6 and 25° C. with a Biacore T200 instrument. Anti-HIS antibody was immobilized on the SPR sensor surface using EDC/NHS covalent attachment. HIS-tagged human α11β1 was captured on the sensor surface and a single-cycle kinetics assay was used. Increasing concentrations of test antibody were injected in series over the sensor-bound α11β1. Dissociation was monitored for 1000 seconds. A sensor surface with only anti-HIS antibody and a series of blank injections were used to double-reference subtract the data. A 1:1 Langmuir model was fit to the data to estimate the kinetic association and dissociation constants. The affinity (equilibrium dissociation constant) of the interaction was calculated by dividing the kinetic dissociation constant by the kinetic association constant. Between injection cycles α11β1 and bound antibody were removed with an injection of 10 mM glycine at pH 1.5.
The binding affinity of antibodies for the α11β1 Headpiece and α11β1 I Domain as measured by SPR is shown in FIG. 10A and FIG. 10B, respectively.

| Molecule | Inhibition of CHO-hu α11-mediated collagen gel contraction [1] | Binding to the I domain of α11β1 (α11β1 I Domain [2]) | Inhibition of cell adhesion to type I collagen [3] | Binding to α11β1 I domain (SPR) (α11β1 I Domain [4]) |
| --- | --- | --- | --- | --- |
| B1 | inhibited | I-domain binders; also recorded: bound the I domain | decrease cell adhesion to collagen |  |
| B2 | inhibited |  |  |  |
| B3 |  | medium |  |  |
| B4 |  | low |  |  |
| B5 | inhibited | I-domain binders; also recorded: bound the I domain | decrease cell adhesion to collagen | do bind |
| B6 |  | did not bind to the I-domain |  |  |
| B7 | inhibited |  |  |  |
